US20220281942A1 (published 2022)

Target: T1, CCND1 (G1/S-specific cyclin-D1) peptide on HLA-DPA1*01:03 / HLA-DPB1*04:01 (human)
T1 peptide: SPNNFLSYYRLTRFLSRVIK
Assay: multimer staining

binding result: recognises
B1: 03-CCND1219-238 (TCR, V domains shown)
Valpha: KDQVFQPSTVASSEGAVVEIFCNHSVSNAYNFFWYLHFPGCAPRLLVKGSKPSQQGRYNMTYERFSSSLLILQVREADAAVYYCAVCTLYNFNKFYFGSGTKLNVKP
Vbeta: GVTQTPKFQVLKTGQSMTLQCAQDMNHEYMSWYRQDPGMGLRLIHYSVGAGITDQGEVPNGYNVSRSTTEDFPLRLLSAAPSQTSVYFCASLTDNNEQFFGPGTRLTVL
